Test results taken from the supplement of paper PMC12783771.
± gives the standard deviation of the averaged measurements.

B1: library; numbered along this chain (parent)
chain: MNIQIGELAKRTACPVVTIRFYEQEGLLPPPGRSRGNFRLYGEEHVERLQFIRHCRSLDMPLSDVRTLLSYRKRPDQDCGEVNMLLDEHIRQVESRIGALLELKHHLVELREACSGARPAQSCGILQGLSDCVCDTRGTTAHPSD

Tests used:
[1] = variants of: B1; assay: sfGFP reporter fluorescence (15 h) (µM FITC); higher = higher leak; details: library round: Round 1; ligand: none
Summary of the method: (§1)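 Values are endpoint sfGFP fluorescence given as µM FITC equivalents. Fluorescence was read at 485/528 nm on a Synergy Neo2, and FITC standard curves were prepared in 50 mM sodium borate pH 8.5. Reactions of 1 μL combined BL21 Star (DE3) PANOx-SP extract, pPbrR-sfGFP reporter, 30 μg/mL GamS and linear PbrR templates (PCR-made, Echo-normalized to 5 nM), with 1 µM lead chloride, 30 µM zinc acetate or no metal, for 15 hr at 30 °C.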

[2] = variants of: B1; assay: sfGFP reporter fluorescence (15 h) (µM FITC); higher = stronger transcriptional activation; details: library round: Round 1
Summary of the method: as §1

Variant | sfGFP reporter fluorescence [1] | sfGFP reporter fluorescence ([2]; ligand: 1 µM Pb) | sfGFP reporter fluorescence ([2]; ligand: 30 µM Zn)
D64T D135A | 0.13 ± 0.0033 | 0.23 ± 0.0095 | 1.63 ± 0.1
P61N E94V | 0.07452 ± 0.00056 | 0.145 ± 0.009 | 0.747 ± 0.049
M84A G124A | 0.0619 | 0.064 ± 0.0056 | 0.143 ± 0.0022
D131F D135A | 0.0667 ± 0.0016 | 0.071 ± 0.0022 | 0.345 ± 0.018
N83I K104V | 0.0628 ± 0.0011 | 0.356 ± 0.026 | 0.0679 ± 0.0048
G128I D135A | 0.0699 ± 0.0036 | 0.12 ± 0.0083 | 0.64 ± 0.032
D131A D135S | 0.0699 ± 0.0026 | 0.0955 ± 0.0012 | 0.604 ± 0.0087
D131T V133P | 0.0641 ± 0.0013 | 0.0767 ± 0.0042 | 0.395 ± 0.036
N83T V108L D131C P143T | 0.06365 ± 0.00056 | 0.0753 ± 0.002 | 0.0975 ± 0.0026
N83T I97C | 0.0623 ± 0.0016 | 0.063 ± 0.0038 | 0.109 ± 0.0073
D64K D131C | 0.0864 ± 0.0047 | 0.282 ± 0.026 | 0.929 ± 0.032
D64A C134M | 0.135 ± 0.0022 | 0.233 ± 0.0049 | 1.77 ± 0.21
G32A D131C | 0.0613 ± 0.0022 | 0.0707 ± 0.0055 | 0.147 ± 0.0097
R111I C134P | 0.0589 ± 0.0022 | 0.0683 ± 0.0031 | 0.228 ± 0.0041
N83T K104V | 0.0623 ± 0.0026 | 0.113 ± 0.0044 | 0.249 ± 0.025
N83T C134A | 0.0602 ± 0.0013 | 0.0716 ± 0.0016 | 0.162 ± 0.014
D64A D135R | 0.0876 ± 0.00097 | 0.18 ± 0.034 | 1.55 ± 0.021
P61N L68F I90T | 0.0702 ± 0.0011 | 0.0958 ± 0.017 | 0.435 ± 0.044
P61N D131Y | 0.0734 ± 0.00076 | 0.115 ± 0.0094 | 0.59 ± 0.078
M60L P61N D64K L107C G128M | 2.5 ± 0.028 | 2.54 ± 0.22 | 2.51 ± 0.45
K104R D135A | 0.0652 ± 0.0026 | 0.0866 ± 0.004 | 0.368 ± 0.043
L107I P143R | 0.06365 ± 0.00021 | 0.0775 ± 0.0077 | 0.473 ± 0.02
G128I D131C | 0.0762 ± 0.0028 | 0.146 ± 0.018 | 0.618 ± 0.011

Variant | sfGFP reporter fluorescence [1] | sfGFP reporter fluorescence ([2]; ligand: 1 µM Pb) | sfGFP reporter fluorescence ([2]; ligand: 30 µM Zn)
P61N E112V | 0.0641 ± 0.0026 | 0.0906 ± 0.0036 | 0.387 ± 0.058
E109L G128H P143L | 0.0639 ± 0.00092 | 0.0852 ± 0.0089 | 0.204 ± 0.018
P29L | 0.0608 ± 0.0015 | 0.0704 ± 0.0041 | 0.213 ± 0.0041
G128H D131C | 0.0654 ± 0.0018 | 0.0887 ± 0.01 | 0.187 ± 0.02
L107C D131A | 0.73 ± 0.082 | 1.4 ± 0.048 | 2.23 ± 0.17
P61D D64K L107C G128M | 1.99 ± 0.49 | 2.06 ± 0.23 | 2.38 ± 0.037
D64T E88A C134E | 0.204 ± 0.031 | 0.238 ± 0.062 | 1.65 ± 0.15
M60L P61N D64K D131C | 0.194 ± 0.0087 | 0.7 ± 0.062 | 1.15 ± 0.26
C79F G128M | 0.0586 ± 0.0017 | 0.0606 ± 0.0011 | 0.0597 ± 0.00073
L85Y K104V | 0.0606 ± 0.0011 | 0.0629 ± 0.0018 | 0.223 ± 0.011
N83T D131A P143I | 0.0661 ± 0.0015 | 0.088 ± 0.0036 | 0.158 ± 0.014
N83T D131A P143L | 0.0646 ± 0.0011 | 0.0895 ± 0.002 | 0.161 ± 0.012
L100V G128I | 0.0908 ± 0.0036 | 0.322 ± 0.035 | 1.24 ± 0.03
D64K C114I | 0.05986 ± 0.00056 | 0.0594 ± 0.0011 | 0.0599 ± 0.0022
D64T R111F | 0.09114 ± 0.00056 | 0.181 ± 0.022 | 1.71 ± 0.025
P61N K104V L107E | 0.0663 ± 0.0026 | 0.0646 ± 0.0037 | 0.06805 ± 0.00056
M60L D64T L107C | 0.71 ± 0.032 | 0.754 ± 0.061 | 2.46 ± 0.078
E109D D135R | 0.06377 ± 0.00037 | 0.0733 ± 0.0076 | 0.422 ± 0.031
N83T C123L | 0.0594 ± 0.0013 | 0.0586 ± 0.0016 | 0.059 ± 0.0017
E109H D135A | 0.0629 ± 0.00092 | 0.0832 ± 0.011 | 0.254 ± 0.02
P61N D64K D131C | 0.119 ± 0.0056 | 0.297 ± 0.065 | 0.868 ± 0.068
N83T R111F | 0.0639 ± 0.0014 | 0.0644 ± 0.004 | 0.085 ± 0.0026
N83T D135V P143A | 0.0633 ± 0.0021 | 0.0745 ± 0.0035 | 0.189 ± 0.0083

Variant | sfGFP reporter fluorescence [1] | sfGFP reporter fluorescence ([2]; ligand: 1 µM Pb) | sfGFP reporter fluorescence ([2]; ligand: 30 µM Zn)
L129V D135A | 0.0641 ± 0.00097 | 0.0619 ± 0.003 | 0.0639 ± 0.0027
N83T D131M D135A | 0.0656 ± 0.0024 | 0.0837 ± 0.0023 | 0.205 ± 0.011
D131A P143L | 0.07208 ± 0.00056 | 0.0969 ± 0.0024 | 0.559 ± 0.0079
V108L R111L | 0.0611 ± 0.00085 | 0.0617 ± 0.0045 | 0.114 ± 0.0047
N83S I90L R111L | 0.063 ± 0.0026 | 0.079 ± 0.0099 | 0.205 ± 0.021
N83T V108N | 0.06328 ± 0.00021 | 0.0698 ± 0.0061 | 0.132 ± 0.0091
D64K K104E | 0.0882 ± 0.0047 | 0.31 ± 0.058 | 1.65 ± 0.039
D64A E94R | 0.0816 ± 0.0051 | 0.179 ± 0.013 | 1.44 ± 0.18
L85I P143M | 0.058 ± 0.0019 | 0.0691 ± 0.0018 | 0.401 ± 0.029
N83T L107C | 0.1001 ± 0.00064 | 0.518 ± 0.13 | 1.53 ± 0.15
E109H D131C | 0.0634 ± 0.0019 | 0.0764 ± 0.0062 | 0.159 ± 0.017
D131Y D135A | 0.0654 ± 0.0021 | 0.1 ± 0.0045 | 1.61 ± 0.27
P61N V108M | 0.07 ± 0.0013 | 0.122 ± 0.0096 | 0.698 ± 0.094
N83I I97H | 0.0618 ± 0.0012 | 0.0654 ± 0.0032 | 0.0625 ± 0.003
N83T E94R | 0.0643 ± 0.0013 | 0.0792 ± 0.002 | 0.128 ± 0.0019
G128L C134E | 0.0749 ± 0.0015 | 0.135 ± 0.0039 | 1.36 ± 0.11
R96A K104V | 0.068 ± 0.0015 | 0.0754 ± 0.0017 | 0.118 ± 0.0059
L107C G128H | 0.132 ± 0.0069 | 0.409 ± 0.075 | 1.66 ± 0.14
V16C V46Y | 0.0651 ± 0.0018 | 0.07452 ± 0.00021 | 0.0793 ± 0.0053
N83T E112M | 0.06267 ± 0.00037 | 0.0849 ± 0.0046 | 0.162 ± 0.0094
N83T E112L | 0.0619 ± 0.0034 | 0.0766 ± 0.0039 | 0.125 ± 0.0069
N83T L85M | 0.0622 ± 0.0036 | 0.0669 ± 0.0024 | 0.105 ± 0.003
Q127S | 0.0614 ± 0.00076 | 0.0649 ± 0.0047 | 0.118 ± 0.0086

Variant | sfGFP reporter fluorescence [1] | sfGFP reporter fluorescence ([2]; ligand: 1 µM Pb) | sfGFP reporter fluorescence ([2]; ligand: 30 µM Zn)
R96A K104V G128M | 0.0678 ± 0.0023 | 0.0902 ± 0.0061 | 0.257 ± 0.008
L107N G128M | 0.0744 ± 0.0042 | 0.225 ± 0.02 | 0.917 ± 0.088
N83T L107C G128I | 0.195 ± 0.0097 | 0.702 ± 0.17 | 1.75 ± 0.2
N83T P143W | 0.0657 ± 0.0018 | 0.07806 ± 0.00064 | 0.131 ± 0.0017
V16S P61N | 0.074 ± 0.00097 | 0.114 ± 0.021 | 0.612 ± 0.11
R20W R111L | 0.06866 ± 0.00056 | 0.0663 ± 0.0045 | 0.0727 ± 0.0011
P61D D64K D135A | 0.15 ± 0.0062 | 0.321 ± 0.036 | 1.12 ± 0.11
N83T I90S | 0.0629 ± 0.0014 | 0.0715 ± 0.0022 | 0.109 ± 0.0024
R96G | 0.0668 ± 0.0022 | 0.076 ± 0.004 | 0.195 ± 0.012
R96S | 0.0636 ± 0.0021 | 0.0924 ± 0.0049 | 0.328 ± 0.015
L107C C134I | 0.731 ± 0.13 | 1.15 ± 0.15 | 2.12 ± 0.21
V16C K104V | 0.0623 ± 0.0024 | 0.0778 ± 0.0038 | 0.0911 ± 0.012
I125L D131A D135A | 0.065 ± 0.0029 | 0.0661 ± 0.0051 | 0.0699 ± 0.0045
P61N D64K N83T | 0.0684 ± 0.00076 | 0.232 ± 0.045 | 0.635 ± 0.034
D131C P143A | 0.0583 ± 0.0013 | 0.0696 ± 0.0017 | 0.141 ± 0.011
D131C P143R | 0.0674 ± 0.0018 | 0.0812 ± 0.0024 | 0.196 ± 0.0083
G36F M60L P61N | 0.0662 ± 0.0022 | 0.0735 ± 0.0027 | 0.143 ± 0.007
D131H D135K | 0.0669 ± 0.0015 | 0.0876 ± 0.0064 | 0.579 ± 0.071
K104V R111D | 0.0612 ± 0.0019 | 0.0619 ± 0.0015 | 0.0723 ± 0.0033
L107C R111L G128M | 0.333 ± 0.022 | 1.15 ± 0.33 | 2.19 ± 0.32
